# Assay results: patent US20250186597A1 (BRIGHT PEAK THERAPEUTICS, published 2025)
# T1: IL-18R on HEK-Blue IL18R reporter cells (InvivoGen, #hkb-hmi118) (UniProt Q13478 19-541; O95256 20-599, limits assumed)
# T1 sequence (looked up) 1: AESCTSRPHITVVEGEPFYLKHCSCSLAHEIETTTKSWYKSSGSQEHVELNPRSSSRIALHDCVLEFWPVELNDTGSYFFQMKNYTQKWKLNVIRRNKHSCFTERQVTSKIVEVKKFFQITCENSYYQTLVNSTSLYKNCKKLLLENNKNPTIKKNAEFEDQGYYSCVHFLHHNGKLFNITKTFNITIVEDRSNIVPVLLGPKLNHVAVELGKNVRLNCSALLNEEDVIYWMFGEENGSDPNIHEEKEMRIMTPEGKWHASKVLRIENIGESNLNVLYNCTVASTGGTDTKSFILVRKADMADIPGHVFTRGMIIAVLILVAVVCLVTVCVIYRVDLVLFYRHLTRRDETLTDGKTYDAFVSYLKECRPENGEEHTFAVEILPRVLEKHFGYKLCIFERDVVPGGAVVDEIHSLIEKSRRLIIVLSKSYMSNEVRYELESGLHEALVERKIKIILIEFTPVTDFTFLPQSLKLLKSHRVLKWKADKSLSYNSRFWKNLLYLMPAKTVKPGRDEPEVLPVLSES
# T1 sequence (looked up) 2: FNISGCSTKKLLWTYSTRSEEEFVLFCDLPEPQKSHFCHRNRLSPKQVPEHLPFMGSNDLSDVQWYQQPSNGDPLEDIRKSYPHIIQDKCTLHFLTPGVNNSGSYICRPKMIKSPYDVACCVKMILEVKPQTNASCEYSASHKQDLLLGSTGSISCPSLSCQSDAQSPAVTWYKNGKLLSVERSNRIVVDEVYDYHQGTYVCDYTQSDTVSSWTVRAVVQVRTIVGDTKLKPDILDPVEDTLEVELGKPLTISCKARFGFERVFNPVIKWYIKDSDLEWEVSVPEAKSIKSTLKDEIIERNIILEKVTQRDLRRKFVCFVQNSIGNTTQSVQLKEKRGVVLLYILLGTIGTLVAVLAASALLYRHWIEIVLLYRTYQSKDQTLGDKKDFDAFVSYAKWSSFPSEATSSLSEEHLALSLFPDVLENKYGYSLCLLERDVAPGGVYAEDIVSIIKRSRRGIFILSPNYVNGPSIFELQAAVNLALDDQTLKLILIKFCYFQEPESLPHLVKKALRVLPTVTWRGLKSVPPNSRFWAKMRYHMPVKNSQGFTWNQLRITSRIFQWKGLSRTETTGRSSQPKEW
# T2: recombinant Human Fc gamma RIIB/CD32b Avi-tag Protein (R&D systems, AVI1875-050, CF) (human, UniProt P31994 46-217)
# T2 construct: also called FcγRIIb/CD32b
# T2 sequence (looked up): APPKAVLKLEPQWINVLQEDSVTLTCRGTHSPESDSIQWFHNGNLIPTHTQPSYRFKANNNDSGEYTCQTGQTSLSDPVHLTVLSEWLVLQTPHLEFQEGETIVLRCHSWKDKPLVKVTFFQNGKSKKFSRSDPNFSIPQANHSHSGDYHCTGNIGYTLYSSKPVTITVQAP
# T3: recombinant Human Fc gamma RIIA/CD32a (H167) Protein (R&D systems, 9595-CD-050, CF) (human, UniProt P12318 36-218)
# T3 construct: also called FcγRIIa/CD32a; human Fc gamma receptors IIa
# T3 sequence (looked up): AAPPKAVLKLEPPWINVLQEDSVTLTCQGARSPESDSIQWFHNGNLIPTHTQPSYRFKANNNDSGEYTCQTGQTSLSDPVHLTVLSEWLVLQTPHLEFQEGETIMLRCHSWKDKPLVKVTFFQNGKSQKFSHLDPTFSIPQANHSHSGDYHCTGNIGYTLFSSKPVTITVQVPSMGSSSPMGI
# Legend:
# [1] = target: T1, IL-18R on HEK-Blue IL18R reporter cells …; assay: cell-based or functional assay
# [2] = target: T4, recombinant Human Fc gamma RI/CD64 Protein (R&D systems, 1257-FC-050, CF) (human, UniProt P12314 16-288); assay: ELISA; antibody coated, Fc gamma receptor titrated
# T4 construct: also called FcγRI/CD64; human Fc gamma receptor I (CD64)
# [3] = target: T5, recombinant Human Fc gamma RIIIA/CD16a Protein (R&D systems, 4325-FC-050; CF) (human, UniProt P08637 17-208, limits assumed); assay: ELISA; antibody coated, Fc gamma receptor titrated
# T5 construct: also called FcγRIIIa/CD16; human Fc gamma receptor IIIa (CD16)
# [4] = target: T2, recombinant Human Fc gamma RIIB/CD32b …; assay: ELISA; antibody coated, Fc gamma receptor titrated
# [5] = target: T3, recombinant Human Fc gamma RIIA/CD32a …; assay: ELISA; antibody coated, Fc gamma receptor titrated
# [6] = target: T6, recombinant biotinylated human FcRn (human, UniProt P55899 24-297; P61769 21-119, limits assumed, biotinylated (site not stated)); assay: AlphaLISA competition at pH 6; competitor: human IgG on acceptor beads
# T6 construct: also called human neonatal Fc receptor (FcRn); human Fc neonatal receptor
# [7] = target: T7, His-tagged human PD1, R&D #8986-PD (human, UniProt Q15116 25-167); assay: BLI (Octet), antibody on AHC sensor, His-tagged human PD1 as analyte
# T7 construct: Bought reagent; not shown: His tag
# [8] = target: T8, Biotinylated Recombinant Human PD-1/CD279-Fc Chimera, carrier-free, Biolegend #789406 (human, UniProt Q15116 25-167, biotinylated (site not stated)); assay: ELISA; antibody coated, biotinylated human PD-1-Fc titrated
# T8 construct: Bought reagent; also called recombinant biotinylated human PD-1; human PD1/CD279 ligand; Fc part of the bought chimera not given; not described
# [9] = target: T8, Biotinylated Recombinant Human …; assay: ELISA; antibody coated on the plate, biotinylated human PD-1-Fc titrated in solution (x axis), streptavidin-HRP, signal at 450 nm
binder,measurement,setting,value
"IL-18 polypeptide C140 (SEQ ID NO: 72; N-terminal 4xG, E6K, V11I, C38A, K53A, T63A, C76A, C127A) (ligand) GGGGYFGKLKSKLSIIRNLNDQVLFIDQGNRPLFEDMTDSDARDNAPRTIFIISMYADSQPRGMAVAISVKCEKISTLSAENKIISFKEMNPPDNIKDTKSDIIFFQRSVPGHDNKMQFESSSYEGYFLAAEKERDLFKLILKKEDELGDRSIMFTVQNED","EC50, HEK-Blue IL18R reporter assay",[1],2.5 pM
"Durvalumab/Imfinzi (antibody, human IgG1, kappa, also called MEDI-4736) heavy: EVQLVESGGGLVQPGGSLRLSCAASGFTFSRYWMSWVRQAPGKGLEWVANIKQDGSEKYYVDSVKGRFTISRDNAKNSLYLQMNSLRAEDTAVYYCAREGGWFGELAFDYWGQGTLVTVSSASTKGPSVFPLAPSSKSTSGGTAALGCLVKDYFPEPVTVSWNSGALTSGVHTFPAVLQSSGLYSLSSVVTVPSSSLGTQTYICNVNHKPSNTKVDKRVEPKSCDKTHTCPPCPAPEFEGGPSVFLFPPKPKDTLMISRTPEVTCVVVDVSHEDPEVKFNWYVDGVEVHNAKTKPREEQYNSTYRVVSVLTVLHQDWLNGKEYKCKVSNKALPASIEKTISKAKGQPREPQVYTLPPSREEMTKNQVSLTCLVKGFYPSDIAVEWESNGQPENNYKTTPPVLDSDGSFFLYSKLTVDKSRWQQGNVFSCSVMHEALHNHYTQKSLSLSPGK light: EIVLTQSPGTLSLSPGERATLSCRASQRVSSSYLAWYQQKPGQAPRLLIYDASSRATGIPDRFSGSGSGTDFTLTISRLEPEDFAVYYCQQYGSLPWTFGQGTKVEIKRTVAAPSVFIFPPSDEQLKSGTASVVCLLNNFYPREAKVQWKVDNALQSGNSQESVTEQDSKDSTYSLSSTLTLSKADYEKHKVYACEVTHQGLSSPVTKSFNRGEC",Kd,[2],2.34 nM
same,Kd,[3],234 nM
same,Kd,[4],233 nM
same,Kd,[5],160 nM
same,Kd,[6],8.31 nM
"IL-18 polypeptide C182 (E6K, V11I, C38A, K53A, T63A, C76A, C127A, V153Y) (ligand) YFGKLKSKLSIIRNLNDQVLFIDQGNRPLFEDMTDSDARDNAPRTIFIISMYADSQPRGMAVAISVKCEKISTLSAENKIISFKEMNPPDNIKDTKSDIIFFQRSVPGHDNKMQFESSSYEGYFLAAEKERDLFKLILKKEDELGDRSIMFTYQNED","EC50, HEK-Blue IL18R reporter assay",[1],0.08 pM
"IL-18 polypeptide C184 (E6R, V11I, C38A, K53A, T63A, C76A, C127A) (ligand) YFGKLRSKLSIIRNLNDQVLFIDQGNRPLFEDMTDSDARDNAPRTIFIISMYADSQPRGMAVAISVKCEKISTLSAENKIISFKEMNPPDNIKDTKSDIIFFQRSVPGHDNKMQFESSSYEGYFLAAEKERDLFKLILKKEDELGDRSIMFTVQNED","EC50, HEK-Blue IL18R reporter assay",[1],0.04 pM
"IL-18 polypeptide C183 (SEQ ID NO: 69; E6K, V11I, C38A, M51G, K53A, T63A, C76A, C127A) (ligand) YFGKLKSKLSIIRNLNDQVLFIDQGNRPLFEDMTDSDARDNAPRTIFIISGYADSQPRGMAVAISVKCEKISTLSAENKIISFKEMNPPDNIKDTKSDIIFFQRSVPGHDNKMQFESSSYEGYFLAAEKERDLFKLILKKEDELGDRSIMFTVQNED","EC50, HEK-Blue IL18R reporter assay",[1],0.1 pM
"IL-18 polypeptide C142 (Y1M, E6K, V11I, C38A, K53A, T63A, C76A, C127A) (ligand) MFGKLKSKLSIIRNLNDQVLFIDQGNRPLFEDMTDSDARDNAPRTIFIISMYADSQPRGMAVAISVKCEKISTLSAENKIISFKEMNPPDNIKDTKSDIIFFQRSVPGHDNKMQFESSSYEGYFLAAEKERDLFKLILKKEDELGDRSIMFTVQNED","EC50, HEK-Blue IL18R reporter assay",[1],0.02 pM
"Avelumab/Bavencio (antibody, human IgG1, lambda, also called MSB-0010718C; PF-06834635) heavy: not shown light: QSALTQPASVSGSPGQSITISCTGTSSDVGGYNYVSWYQQHPGKAPKLMIYDVSNRPSGVSNRFSGSKSGNTASLTISGLQAEDEADYYCSSYTSSSTRVFGTGTKVTVLGQPKANPTVTLFPPSSEELQANKATLVCLISDFYPGAVTVAWKADGSPVKAGVETTKPSKQSNNKYAASSYLSLTPEQWKSHRSYSCQVTHEGSTVEKTVAPTECS",Kd,[6],5.36 nM
"Pembrolizumab/Keytruda (antibody, human IgG4 S228P, kappa, also called Lambrolizumab; MK-3475) heavy: not shown light: EIVLTQSPATLSLSPGERATLSCRASKGVSTSGYSYLHWYQQKPGQAPRLLIYLASYLESGVPARFSGSGSGTDFTLTISSLEPEDFAVYYCQHSRDLPLTFGGGTKVEIKRTVAAPSVFIFPPSDEQLKSGTASVVCLLNNFYPREAKVQWKVDNALQSGNSQESVTEQDSKDSTYSLSSTLTLSKADYEKHKVYACEVTHQGLSSPVTKSFNRGEC",Kd,[2],0.593 nM
same,Kd,[3],1660 nM
same,Kd,[6],7.45 nM
"IL-18 polypeptide C141 (SEQ ID NO: 71; N-terminal G, E6K, V11I, C38A, K53A, T63A, C76A, C127A) (ligand) GYFGKLKSKLSIIRNLNDQVLFIDQGNRPLFEDMTDSDARDNAPRTIFIISMYADSQPRGMAVAISVKCEKISTLSAENKIISFKEMNPPDNIKDTKSDIIFFQRSVPGHDNKMQFESSSYEGYFLAAEKERDLFKLILKKEDELGDRSIMFTVQNED","EC50, HEK-Blue IL18R reporter assay",[1],1.68 pM
"IL-18 polypeptide C192 (SEQ ID NO: 70; N-terminal G, E6K, V11I, C38A, M51G, K53A, T63A, C76A, C127A) (ligand) GYFGKLKSKLSIIRNLNDQVLFIDQGNRPLFEDMTDSDARDNAPRTIFIISGYADSQPRGMAVAISVKCEKISTLSAENKIISFKEMNPPDNIKDTKSDIIFFQRSVPGHDNKMQFESSSYEGYFLAAEKERDLFKLILKKEDELGDRSIMFTVQNED","EC50, HEK-Blue IL18R reporter assay",[1],14 pM
"LZM-009 (antibody, V domains shown, full antibody with an Fc region (K248, EU numbering); also called anti-PD-1 antibody LZM-009) VH: QVQLVQSGAEVKKPGASVKVSCKASGYTFTSYYMYWVRQAPGQGLEWMGGVNPSNGGTNFNEKFKSRVTITADKSTSTAYMELSSLRSEDTAVYYCARRDYRYDMGFDYWGQGTTVTVSS VL: EIVLTQSPATLSLSPGERATISCRASKGVSTSGYSYLHWYQQKPGQAPRLLIYLASYLESGVPARFSGSGSGTDFTLTISSLEPEDFATYYCQHSRELPLTFGTGTKVEIK",Kd,[7],23.5 nM
same,koff,[7],0.0077 s⁻¹
same,kon,[7],342000 M⁻¹ s⁻¹
same,Kd,[8],0.0407 nM
same,EC50 (read off the curve),[9],~0.06 nM
